In article PMC4552633 one finds response (% relative to input control) data, which are given here for 5 substances.

Assay [1] deals with clathrin adaptor AP-1, endogenous in 293T cells (detected by its γ-adaptin subunit), O43747;Q9BXS5;P61966. The assay is described as follows: cross-linking co-immunoprecipitation (anti-HA IP), Western blot quantification. Conditions: read off a plot. On the technique in general: In western blotting, separated proteins are transferred to a membrane and probed.
For assay [2], the target named is clathrin adaptor AP-2, endogenous in 293T cells (detected by its α adaptin subunit), O95782;Q96CW1;P53680. The description is as above. Conditions: read off a plot.
Where [3] appears, read: 293T tetherin Y6,8A cells, PFA (0.05% w/v) cross-linking, 48 h post transfection, parent: est. 1.8.
Setting [4] is: 293T tetherin cells, PFA (0.05% w/v) cross-linking, 48 h post transfection, parent: est. 1.5.
Where [5] appears, read: 293T tetherin Y6,8A cells, PFA (0.05% w/v) cross-linking, 48 h post transfection, parent: est. 2.3.
The mark [6] stands for this setting: 293T tetherin cells, PFA (0.05% w/v) cross-linking, 48 h post transfection, parent: est. 0.9.
Where [7] appears, read: 293T tetherin Y6,8A cells, DMSO, PFA (0.05% w/v) cross-linking, 48 h post transfection, parent: est. 2.5.
Where [8] appears, read: 293T tetherin Y6,8A cells, DMSO, PFA (0.05% w/v) cross-linking, 48 h post transfection, parent: est. 1.7.

With “HIV-1 NL4.3 Vpu-HA (codon optimized, pCR3.1 Vpu-HA) A14L; W22A”, the response (% relative to input control) was determined as 0 in assay [1] (setting [3]), 0.45 in assay [1] (setting [4]), 0 in assay [2] (setting [5]) and 0 in assay [2] (setting [6]).

With “HIV-1 NL4.3 Vpu-HA (codon optimized, pCR3.1 Vpu-HA) ELV”, the response (% relative to input control) in assay [1] (setting [7]) is 0; in assay [1] (setting [3]), 0; in assay [1] (setting [4]) it was 0.95; in assay [1] (parent: est. 0), 0; in assay [2] (setting [8]) it was 0; in assay [2] (setting [5]), 0. Moreover, the response (% relative to input control) in assay [2] (setting [6]) and in assay [2] (parent: est. 0) was 0 throughout.

For “HIV-1 NL4.3 Vpu-HA (codon optimized, pCR3.1 Vpu-HA) L41A; I42A; L45A; I46A”, the response (% relative to input control) is 0 in assay [1] (setting [3]), 0.1 in assay [1] (setting [4]), 0 in assay [2] (setting [5]) and 0 in assay [2] (setting [6]).

As to “HIV-1 NL4.3 Vpu-HA (codon optimized, pCR3.1 Vpu-HA) N54H; E55G”, the response (% relative to input control) in assay [1] (setting [3]), in assay [1] (setting [4]), in assay [2] (setting [5]) and in assay [2] (setting [6]) was 0 each time.

In the case of “HIV-1 NL4.3 Vpu-HA (codon optimized, pCR3.1 Vpu-HA) S52A; S56A”, the response (% relative to input control) in assay [1] (setting [7]) came to 0; in assay [1] (setting [3]), 0; in assay [1] (setting [4]) it was 1; in assay [1] (parent: est. 0), 0; in assay [2] (setting [8]), 0; in assay [2] (setting [5]) it was 0. Also, the response (% relative to input control) in assay [2] (setting [6]) and in assay [2] (parent: est. 0) was 0 in each case.
